According to article PMC3101103 (The Journal of Cell Biology, 2011):

Tests used:
[1] = target: ACP-TM with the C-terminal YFP fragment at its C terminus (rabbit | not stated); assay: split reporter
[2] = target: N-formyl peptide receptor (FPR), nonactivating mutant D71A (UniProt P21462); assay: single-molecule TIRF imaging, 2D-3D Scatchard plot
[3] = target: N-formyl peptide receptor (FPR), nonactivating mutant D71A (UniProt P21462); assay: TIRF imaging, time course of surface-bound fluorescence
[4] = target: the molecule itself; assay: single-molecule TIRF imaging, duration of colocalization events
[5] = target: the molecule itself; assay: single-molecule TIRF imaging, spot-intensity histograms against expression level

## ACP-TM with the N-terminal YFP fragment at its C terminus (from UniProt P42212 1-155)
[1]
  corrected lifetime of BiFC dimers: 163 ms

## N-formyl-Nle-Leu-Phe-Nle-Tyr-Lys conjugated with Alexa Fluor 594 (peptide)
[2]
  Kd: 2.2 nM
[3]
  kon: 7.6e+06 M⁻¹ s⁻¹

B1: N-formyl peptide receptor (FPR), nonactivating mutant D71A (receptor, UniProt P21462 1-350, looked up)
chain: METNSSLPTNISGGTPAVSAGYLFLDIITYLVFAVTFVLGVLGNGLVIWVAGFRMTHTVTTISYLNLAVAAFCFTSTLPFFMVRKAMGGHWPFGWFLCKFVFTIVDINLFGSVFLIALIALDRCVCVLHPVWTQNHRTVSLAKKVIIGPWVMALLLTLPVIIRVTTVPGKTGTVACTFNFSPWTNDPKERINVAVAMLTVRGIIRFIIGFSAPMSIVAVSYGLIATKIHKQGLIKSSRPLRVLSFVAAAFFLCWSPYQVVALIATVRIRELLQGMYKEIGIAVDVTSALAFFNSCLNPMLYVFMGQDFRERLIHALPASLERALTEDSTQTSDTATNSTLPSAEVELQAK
[4]
  koff: 11 s⁻¹
[5]
  stoichiometry N: 2
